Series [1] in a line: folding stability dG unfold from trypsin proteolysis; higher = more stable. The method in brief:
(§1)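 Sequencing followed digestion of designed mini-proteins with trypsin and chymotrypsin, each at 11 concentrations in threefold dilutions together with a no-protease condition. The mini-proteins were under 80 residues, had no cysteine, sat in a PA-tagged cDNA display construct, and were kept only if AlphaFold2 dimer inter-PAE was above 15. From the counts, Bayesian fitting gave K50, and unfolding free energy was derived against a sequence-predicted unfolded-state K50 and a shared folded-state K50, per protease or combined.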

Series [2] can be described thus: folding stability dG unfold from chymotrypsin proteolysis; higher = more stable. In a few lines: as §1
Series [3] is described as follows: folding stability dG unfold (combined trypsin and chymotrypsin); higher = more stable. In a few lines:
as §1

± gives the half width of the 95% confidence interval.

Take “SAGGLAEEIVEELKERFPGMDVDIDVKEEEDPNNGWVKITIMVRVRNPDDNKPRHEIQLDIEIPVDDSAGGS [r8_207_TrROS]”: the “folding stability dG unfold” value is 1.69 ± 0.056 kcal/mol in series [1], 1.89 ± 0.036 kcal/mol in series [2] and 1.82 ± 0.086 kcal/mol in series [3].
“SAGGLDGDMKVDEMEHDPNNGTYRYKAEAGDQWWTFEMKVVPVIPPIPISISPEDLQEGNWNISIWFSAGGS [r16_809_TrROS]”: the “folding stability dG unfold” value came out at 1.46 ± 0.05 kcal/mol in series [1], 2.39 ± 0.08 kcal/mol in series [2] and 2.09 ± 0.2 kcal/mol in series [3].
The corresponding values for “SAGGLNFEIIEVSPNHIIARFPDAGYIIMAKIKMEWKPKRDPENGKPRYEPKFKIDIHVIPLKPGQPISAGG [r13_322_TrROS]” are 3.27 ± 0.09 kcal/mol, 4.66 ± 0.17 kcal/mol and 4.09 ± 0.12 kcal/mol.
The corresponding values for “SAGGLTVVSVDPSTNTITIKLGNKDIEITVPPDRPPEVTFTRDPSGTYTITITTEGSTTTYTIPLSQLPSAG [r5_500_JUSTAS]” are 2.45 ± 0.052 kcal/mol, 3.143 ± 0.015 kcal/mol and 2.85 ± 0.07 kcal/mol.
The corresponding values for “SAGGLVIPVTFMFQDWEEAEEFANEIARELANLYPGRPVKIDVEVEPIRNPNNGKRYYMVEATIEIDPSAGG [r13_545_TrROS]” are 2.01 ± 0.059 kcal/mol, 2.77 ± 0.033 kcal/mol and 2.6 ± 0.15 kcal/mol.
In the case of “SAGGLVLPPDAVVTGTLTAPRPDGSTVTVRARVRFPPRPPPPPLVLVRLPDGSVRPVRSLEEARRLASAGGS [r16_580_TrMRF]”, the entries for the “folding stability dG unfold” value in series [1], in series [2] and in series [3] were 3.16 ± 0.11 kcal/mol, 3.76 ± 0.059 kcal/mol and 3.49 ± 0.1 kcal/mol, respectively.
On to “SAGGLYVFDKNGKIISKVPKVEPIPIVITFPDGEKVLFEKYPGLNIIVVSYEGENPEKVKEAVKKILSSAGG [r13_701_TrMRF]”, for which the entries for the “folding stability dG unfold” value in series [1], in series [2] and in series [3] were 0.835 ± 0.075 kcal/mol, 1.06 ± 0.14 kcal/mol and 0.977 ± 0.13 kcal/mol, respectively.
For the sequence “SAGGMATITVTSDGVLKVTFVDPATGSPVKTIPLPLSEVEQLGAEKGSPLSLEEILKELGYPTEITLGSAGG [r13_836_JUSTAS]”, the results for the “folding stability dG unfold” value in series [1], in series [2] and in series [3] were 1.52 ± 0.059 kcal/mol, 1.48 ± 0.008 kcal/mol and 1.51 ± 0.045 kcal/mol, respectively.
For “SAGGMDPDDLKGMPPEQAKDIVRDWIREYMQERNPNMPPGMKITDVPVEVRDPDNGKEIEVKVEIENYSAGG [r13_555_TrROS]”, the “folding stability dG unfold” value in series [1] is -0.936 ± 0.37 kcal/mol; in series [2], -0.00917 ± 0.33 kcal/mol; in series [3], -0.242 ± 0.33 kcal/mol.
With “SAGGMEEVIEEAIEAAKKGENVTITLPASVDPEVVLKALEEASGLKVTPISVTPLPDGTLRIEVKIESAGGS [r16_318_JUSTAS]”, the results for the “folding stability dG unfold” value in series [1], in series [2] and in series [3] were 4.24 ± 0.19 kcal/mol, 4.24 ± 0.14 kcal/mol and 5.08 ± 0.54 kcal/mol, respectively.
Regarding “SAGGMEFTPDQFLIIVLGLPDDTLEVAIIPAGDIEKAFEELGFPLEEVDILEIVEADLTPEEAEELAESAGG [r13_850_TrMRF]”, the “folding stability dG unfold” value in series [1] turned out to be 1.81 ± 0.1 kcal/mol; in series [2], 1.55 ± 0.046 kcal/mol; in series [3], 1.68 ± 0.088 kcal/mol.
The corresponding values for “SAGGMELFELEFEAEITPLEEPDKPVPVKIRILKRVEPVPNEPGFKVHYRALLENEEGVVPFEFTLDSAGGS [r16_300_TrMRF]” are 0.998 ± 0.055 kcal/mol, 1.74 ± 0.085 kcal/mol and 1.42 ± 0.085 kcal/mol.
Taken in the same sequence, the figures for “SAGGMETWRIKVDGKEIEVTVEDGKITVTFADGTKVEITLEEGETPEEVAKRLAEELGADKVEIEKVPSAGG [r13_852_TrROS_Hall]” were 3.38 ± 0.48 kcal/mol, 3.31 ± 0.078 kcal/mol and 3.3 ± 0.19 kcal/mol.
As for “SAGGMEVTLRITAEGPEQLEKIQEILDELDVEEVNPTENEVEFRFPGPEPLAKLKEIAEELGLKVEGSAGGS [r16_88_TrMRF]”, the “folding stability dG unfold” value in series [1] was -0.457 ± 0.23 kcal/mol; in series [2], -0.635 ± 0.28 kcal/mol; in series [3], -0.377 ± 0.25 kcal/mol.
Taken in the same sequence, the figures for “SAGGMEYDPETKTFHLHVPGGNLPELREAIENAPDRLVTIEVEDPLTDKPRLFTLPAEEARKFLEAGSAGGS [r16_797_TrMRF]” were -0.182 ± 0.12 kcal/mol, -0.455 ± 0.25 kcal/mol and -0.254 ± 0.095 kcal/mol.
Consider “SAGGMGTPFTTLTVTLEFPSSESLEEAKEKAEELAEELRRAHPEVVSIEIEVSKEGDTYKVKLTVTIASSAG [r5_446_JUSTAS]”, for which the “folding stability dG unfold” value in series [1] stood at 4.37 ± 0.22 kcal/mol; in series [2], 4.72 ± 0.11 kcal/mol; in series [3], 4.7 ± 0.13 kcal/mol.
As to “SAGGMHHLEIYRFEDRKLVVLHLEDKPVVIEVEPGLTEEEAAEKAIEALKEAFPDKEIVIDSVEVKEESAGG [r13_884_TrMRF]”, the “folding stability dG unfold” value was -0.0489 ± 0.064 kcal/mol in series [1], 0.41 ± 0.11 kcal/mol in series [2] and 0.217 ± 0.11 kcal/mol in series [3].
Taken in the same sequence, the figures for “SAGGMIEIIPNPPIIIVRDASTNEISVYNIDAPPGSITRVELTSDGSILIYNPATGKVLVLPKSDIKSAGGS [r16_410_TrMRF]” were 1.33 ± 0.043 kcal/mol, 1.74 ± 0.071 kcal/mol and 1.62 ± 0.077 kcal/mol.

For the origin of these results see the supplement of paper PMC12764529.
